A value given as a limit tells only on which side of the number the result lay.

The text below walks through data of the supplement of paper PMC12764529.

The nature of this data set: folding stability dG unfold (combined trypsin and chymotrypsin); higher = more stable. The method, then: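 Folding stability of de novo designed mini-proteins (<80 aa, no Cys; designed by TrROS, TrMRF, ProteinMPNN and the joint model) was measured by cDNA display proteolysis with trypsin and chymotrypsin. Each protease was used at 11 concentrations in a threefold dilution series plus a no-protease condition. K50 was inferred by Bayesian fitting of sequencing counts, and dG unfold was derived against a sequence-predicted unfolded-state K50 (Tsuboyama et al. method). Sequences shown include variable-length N-terminal GS-type padding (SAGGSAGG...) inside a display construct carrying a PA tag. Rows were kept only if the AF2 dimer inter-PAE was >15, to exclude likely homo-oligomers.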
Regarding “SAGGPMREYTIKLPGKKITINEMPNPNGNEMTQVSVRDGGEPKRPVNMPNDNADEFAKKPGIKPDDIVSAGG [r13_108_TrROS]”, the “folding stability dG unfold” value was less than -1 kcal/mol.
Take “SAGGPVSEEIVTEKKTLEEDPKNGNTYSEIIMKTPNETIKVKGVKHPSGSTTYTVYTPNSKIATVNVSSAGG [r13_146_JUSTAS]”: the “folding stability dG unfold” value is less than -1 kcal/mol.
Turning to “SAGGSAEPKPGVKAILFNENGEPIKEVSENEEILLPNGTPTKVYRLPDNSSIATHPDGYVALFVEGSAGGSA [r15_845_TrMRF]”, the “folding stability dG unfold” value was less than -1 kcal/mol.
For “SAGGSAGEKTLKIVIEGKDKEKVVKEAKPLLEKLFGAKEIKVKVEPLPDGGYKVPIEITVPPGAAKSAGGSA [r15_173_TrMRF]”, the “folding stability dG unfold” value is less than -1 kcal/mol.
For the sequence “SAGGSAGGAVRVDDSEIGPDRAAPLPGNRSLEVRPDSVTVTTTDPSTNTPTTTTLPYSEVERLLSAGGSAGG [r6_942_JUSTAS]”, the “folding stability dG unfold” value is less than -1 kcal/mol.
As for “SAGGSAGGDYKLEPDDIEPMPDGWYQVEIEIEQRDPDGEPETRDIPVWMPPGQTAKDMAKWLIKSAGGSAGG [r6_329_TrROS]”, the “folding stability dG unfold” value is less than -1 kcal/mol.
Regarding “SAGGSAGGGMMKTITITESVVLEVRPVTSENGRVYPEVLSEVLKTTTVPFPPGNEEEIEKAIKESAGGSAGG [r6_738_JUSTAS]”, the “folding stability dG unfold” value is less than -1 kcal/mol.
On to “SAGGSAGGGNTPRPRPRSVVTKLNVSPDTVPPEELKAKHPDIEVSYSPNSLTARVPVNGELVESSAGGSAGG [r6_739_JUSTAS]”, for which the “folding stability dG unfold” value was less than -1 kcal/mol.
On to “SAGGSAGGIKIDPNIKEITWHQNPNGMFYHTIKVDEGKKVAPVRFPPDQPPEQMWDNAKEALKESAGGSAGG [r6_436_TrROS]”, for which the “folding stability dG unfold” value is less than -1 kcal/mol.
Regarding “SAGGSAGGITVTIDMNEGYYRIKVEYPGNGKKREIPISGPPDDLASELEDEFGYPVKDVEIEKWSAGGSAGG [r6_763_TrROS]”, the “folding stability dG unfold” value was less than -1 kcal/mol.
The figure for “SAGGSAGGKPIVFKGKHDGKEMIFPIELNPENGQIKITPMNGKELRIPPNKPPKIVEVDPNDFESAGGSAGG [r6_174_TrROS]” is less than -1 kcal/mol; for “SAGGSAGGMDEKLYITTAEVTVKEDGAPVPSTMTFKSKEEIEKYVKETFPPENVELKITTYPELSAGGSAGG [r6_114_JUSTAS]” it is less than -1 kcal/mol.
For the sequence “SAGGSAGGMEAVLEALKELPPDEEKVITVPHPDDPRYVVRFTLRRKGDEIEIPVEKKPIPPGLASAGGSAGG [r6_392_TrMRF]”, the “folding stability dG unfold” value was less than -1 kcal/mol.
For the sequence “SAGGSAGGMEKADKLAAALVEKGIPFHVKKVEVFEVRIPPADKELGEVVLPAVKIGLDDKVLLASAGGSAGG [r6_686_TrMRF]”, the “folding stability dG unfold” value is less than -1 kcal/mol.
Turning to “SAGGSAGGMKTEVVEETVPLRNEDGKLLPSDALLETELPDKKVLTLVERDPNSDTVKTTRVILESAGGSAGG [r6_659_JUSTAS]”, the “folding stability dG unfold” value was less than -1 kcal/mol.
“SAGGSAGGMSLIVKSEEEAREILKKLGWKVKKLNITKLKDESGTVKIPVEIEPVPKGKLSEELISAGGSAGG [r6_981_JUSTAS]”: the “folding stability dG unfold” value is less than -1 kcal/mol.
With “SAGGSAGGNWETIPIKGDPKQMVDEAREENPRNVRIYNPNNGKKHEFPPGLPLDDFPGMYVQRRSAGGSAGG [r6_858_TrROS]” the figure was less than -1 kcal/mol; with “SAGGSAGGPKPEIDIEPYPEEGQMYVKIRLPGNGRPITIPVEGPMTPNDPEKAIEEAKDALEKFSAGGSAGG [r6_331_TrROS]”, less than -1 kcal/mol; with “SAGGSAGGRIRVPDGREIPPGQSKEEAKDQVKDWFKERNPQNGNKKVKIEAEKWDGMPWIRVKPSAGGSAGG [r6_558_TrROS]”, less than -1 kcal/mol.
“SAGGSAGGSAADLAKLEKVEVEEVPTDPNAEYRVTAELPTPGEPVEFTRRRLPDGSWEYSGSAGGSAGGSAG [r3_234_JUSTAS]”: the “folding stability dG unfold” value was less than -1 kcal/mol.
For the sequence “SAGGSAGGSAEEILELFPDLELLEVDPVEPRALVRRSDDSWLRVNLATGEAEEVGPGEAERESAGGSAGGSA [r18_381_TrMRF]”, the “folding stability dG unfold” value is less than -1 kcal/mol.
Turning to “SAGGSAGGSAGAAEFELSGTVRIGDVPVKVTPRLYVPEDGGYRAEPRVELYFREDTPGYRSAGGSAGGSAGG [r11_121_TrMRF]”, the “folding stability dG unfold” value was less than -1 kcal/mol.
With “SAGGSAGGSAGAPRVRSVTPVGEETFFLPEDRVVRVTLWAAEGEGPPRLFRRVEVLPLDESAGGSAGGSAGG [r11_129_TrMRF]” the figure was less than -1 kcal/mol.
